B1: Nucleolar transcription factor 1, residues 408 to 469; numbered along this chain, P17480 (parent)
chain: KRPVSAMFIFSEEKRRQLQEERPELSESELTRLLARMWNDLSEKKKAKYKAREAALKAQSER
B2: Zinc finger homeobox protein 4, residues 2562 to 2617; numbered along this chain, Q86UP3 (parent)
chain: RLRTTITPEQLEILYEKYLLDSNPTRKMLDHIAREVGLKKRVVQVWFQNTRARERK

Variants of: B1
Assay: abundance fitness (aPCA) (normalised: wild type 0, dead -1); higher = more abundant; growth selection in yeast, the domain comes from the species named
Conditions: Homo sapiens

Abundance fitness: each site, then its substitutions
R62: E 0.027, M -0.019, A 0.079, P -0.232, S -0.019, K 0.042, I -0.055, T -0.051, D 0.073, Y 0.016, Q 0.004, W 0.014, L -0.094, N -0.224, F -0.317, G 0.055
Q59: Y -0.262, G -0.063, P -0.056, W -0.194, D 0, I -0.008, K 0.03, M 0.011, E 0.009, R -0.027, V -0.034, A -0.062, T -0.029, C -0.076, L -0.054, F -0.193, N 0.028, H -0.117
E53: V -0.078, Q -0.146, N -0.37, T -0.211, S -0.13, R -0.389, M -0.164, W -0.133, Y -0.122
E61: D -0.069, C -0.073, V -0.069, F -0.129, M 0.023, R -0.236, K -0.093, Y -0.191, S -0.045, A -0.059, T 0.003, W -0.135, G -0.071
K57: Y -0.162, C -0.048, H -0.044, T -0.059, S -0.005, N -0.068, F -0.058, Q -0.16, L -0.07, I -0.045, R -0.079, G -0.073, V -0.085, P -0.087, D -0.096, E 0.017, A -0.069, W -0.146
A54: T -0.04, S -0.071, E -0.063, F -0.181, M -0.098, K -0.014, V -0.003, P -0.267, H -0.014, R -0.031, Q -0.102, L -0.056, W -0.199, C -0.051, D 0.006, Y -0.075, I -0.142, N -0.033
A58: Q -0.002, Y -0.173, S -0.051, N 0.013, W -0.097, G 0.001, V -0.017, L -0.025, R -0.041, K -0.042, E -0.069, I 0.022, F -0.03, P -0.084, C -0.067, D 0.006, H 0.029
A55: G -0.046, V -0.025, S -0.065, R -0.058, P -0.132, E 0.058, H 0.003, N -0.141, W -0.13, M -0.047, I -0.126, Y -0.149, C -0.028, K -0.054, T -0.062, F 0.059, D -0.039
L56: R -0.111, A -0.023, S 0.013, V -0.036, Y -0.085, E -0.045, P -0.156, C -0.164, N -0.157, H -0.05, T 0.01, F -0.076, M -0.145, G -0.072, K -0.082, D -0.078, I 0.004, Q -0.089
S60: A -0.028, R -0.059, L -0.062, I -0.057, M -0.113, Q -0.036, T -0.037, W -0.049, V -0.038, F 0.031, H -0.317, P -0.006, G 0.027, E 0, C -0.028, N -0.06

Variants of: B2
Assay: as above
Conditions: Homo sapiens

Abundance fitness, by site and new letter:
M28: W -0.577, D 0.242
T5: F -0.312
K40: W -0.002, L 0.264, Y 0.518, H -0.218

Source: the Human Domainome abundance scans (Beltran et al. 2025)
